In this assay the target is APOBEC3G labeled with EGFP (A3G-EGFP), wild type (human), Q9HC16. The assay can be described thus: fluorescence fluctuation spectroscopy. The settings on record: remark: other sources report otherwise.

B1: APOBEC3G labeled with EGFP (A3G-EGFP), wild type, Q9HC16 1-384 (natural protein)
chain: MKPHFRNTVERMYRDTFSYNFYNRPILSRRNTVWLCYEVKTKGPSRPPLDAKIFRGQVYSELKYHPEMRFFHWFSKWRKLHRDQEYEVTWYISWSPCTKCTRDMATFLAEDPKVTLTIFVARLYYFWDPDYQEALRSLCQKRDGPRATMKIMNYDEFQHCWSKFVYSQRELFEPWNNLPKYYILLHIMLGEILRHSMDPPTFTFNFNNEPWVRGRHETYLCYEVERMHNDTWVLLNQRRGFLCNQAPHKHGFLEGRHAELCFLDVIPFWKLDLDQDYRVTCFTSWSPCFSCAQEMAKFISKNKHVSLCIFTARIYDDQGRCQEGLRTLAEAGAKISIMTYSEFKHCWDTFVDHQGCPFQPWDGLDEHSQDLSGRLRAILQNQEN
B1 displayed a normalized brightness at 1 uM of 10.

Values taken from publication PMC3977201.
